Experimental findings from patent US20240141039A1 (AGENUS, published 2024) are described below.

In assay [1] the target is T1, wild type full-length human CD96 isoform 2 expressed on CHO cells (human, UniProt P40200-2 22-569).
T1 construct: whole, on cells; also called human CD96-CHO (isoform 2); human CD96 (iso2) CHO cells
T1 sequence (looked up): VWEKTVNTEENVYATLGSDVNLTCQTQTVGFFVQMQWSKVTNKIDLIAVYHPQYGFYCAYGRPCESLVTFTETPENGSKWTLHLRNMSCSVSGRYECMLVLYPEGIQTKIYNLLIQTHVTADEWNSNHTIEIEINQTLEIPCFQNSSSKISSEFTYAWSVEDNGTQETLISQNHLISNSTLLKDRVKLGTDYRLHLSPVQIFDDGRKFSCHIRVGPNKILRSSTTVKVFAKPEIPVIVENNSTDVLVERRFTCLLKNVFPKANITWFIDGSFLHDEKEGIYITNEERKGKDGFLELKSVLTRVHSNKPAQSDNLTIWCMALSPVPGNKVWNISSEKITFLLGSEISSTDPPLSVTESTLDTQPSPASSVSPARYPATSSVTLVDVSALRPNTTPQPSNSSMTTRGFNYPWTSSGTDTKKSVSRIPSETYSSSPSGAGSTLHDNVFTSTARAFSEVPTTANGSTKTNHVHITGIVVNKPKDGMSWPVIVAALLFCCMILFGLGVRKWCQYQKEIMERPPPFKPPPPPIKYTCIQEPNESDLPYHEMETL
As to the kind of experiment: flow cytometry, human CD96 (isoform 2) CHO cells, geomean of 2 experiments. Here is the method:
For the antibody binding assay, a frozen aliquot of human CD96-CHO cells (isoform 1 or isoform 2) was thawed at 37° C. and then transferred to a tube containing DPBS supplemented with 0.5% Bovine Serum Albumin and 0.05% Sodium Azide (FACS Buffer). Cells were centrifuged at 300 g for five minutes. The supernatant was discarded, and cells resuspended in FACS buffer were seeded in a 96-well U-bottom tissue culture plate at a density of 2×10⁵ cells per well in 50 μL. In a separate microplate, a 2× concentrated intermediate stock of each antibody was prepared. Antibodies were serially diluted 1-to-3 in FACS buffer. A total of 11 working dilutions ranging from 60 μg/mL to 0.001 μg/mL were prepared. Fifty microlitres of each dilution were then transferred to the microplate containing human CD96-CHO cells. The cells were then incubated for 45 minutes at 4° C. […] After a 30-minute incubation on ice, the cells were washed twice with cold FACS Buffer, and the cells were analyzed by flow cytometry (BD LSR Fortessa Flow Cytometer). The data were analyzed using the FlowJo software by sequentially gating the FSC-A vs. SSC-A, and SSC-H vs. SSC-A. Mean fluorescence intensity (MFI) values for PE were calculated, and the data were plotted by GraphPad Prism software.
(A flow cytometer gives signals particle by particle.)

Assay [2] has as its target T2, full-length isoform 2 ECD of cynomolgus monkey CD96 (His-tagged) (cynomolgus monkey).
T2 construct: also called His-tagged isoform 2 of cynomolgus monkey CD96; cyno CD96 extracellular domain isoform 2
T2 chain: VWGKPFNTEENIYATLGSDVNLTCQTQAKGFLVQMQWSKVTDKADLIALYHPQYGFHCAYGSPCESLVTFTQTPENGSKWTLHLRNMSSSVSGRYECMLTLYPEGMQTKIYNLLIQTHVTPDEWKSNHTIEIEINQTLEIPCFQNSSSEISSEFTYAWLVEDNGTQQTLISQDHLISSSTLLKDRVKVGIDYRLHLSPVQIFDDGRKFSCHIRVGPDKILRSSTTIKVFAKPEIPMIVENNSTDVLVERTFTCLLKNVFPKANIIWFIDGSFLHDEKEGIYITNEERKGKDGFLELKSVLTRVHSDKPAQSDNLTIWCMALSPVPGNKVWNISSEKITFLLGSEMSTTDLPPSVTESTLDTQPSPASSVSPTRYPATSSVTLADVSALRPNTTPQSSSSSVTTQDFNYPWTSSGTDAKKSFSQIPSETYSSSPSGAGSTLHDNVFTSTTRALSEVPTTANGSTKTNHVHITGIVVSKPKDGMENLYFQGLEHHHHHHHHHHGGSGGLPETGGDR
In words: SPR Biacore T200, geomean of experiments #1 and #2. Here is the method: (§1) Briefly, surface plasmon resonance experiments were performed using a Biacore T200 instrument, and the association rate (kₐ), dissociation rate (kd), and dissociation constant (KD) were calculated from each experiment using a 1:1 binding model with Biacore T200 Evaluation Software.
Multispecific molecules were captured using a 30-sec injection at a flow rate of 10 μl/min to reach about 350 resonance units (RUs). […] The sensor chip was regenerated between cycles with two 30-sec injections of 10 mM glycine, pH 1.5. Sensorgrams were evaluated and fit to a simple Langmuir 1:1 interaction model using the global data analysis option of BIAevaluation 3.0 software. Data quality was verified by visually inspecting deviations and curve fitting, and by evaluating the parameters of Rₘₐₓ, Chi2, and Tc.

Assay [3] deals with CD8+ T cells (CD3-stimulated; Day 4). In words: flow cytometry on activated primary human T cells, gated CD8+, donor 2; PE anti-human IgG detection.
Experimental: A total of 8 dilutions ranging from 50 μg/mL to 0.000005 μg/mL were prepared. After four days, the sample plates were centrifuged for two minutes at 2000 rpm, and supernatants were discarded. Samples were blocked with FcγR Block prepared in FACs buffer at 5 μL per 100 μL test for 10 minutes. Sample plates were then centrifuged for two minutes at 2000 rpm, and the supernatant was discarded. […] Sample plates were incubated for 30 minutes at 4° C. Cells were washed by addition of cold sample buffer and centrifuged for two minutes at 2000 rpm, and the supernatant was discarded. This wash was repeated once.
Cells were then resuspended in a cocktail of fluorescently labeled antibodies. A cocktail of fluorescently labeled antibodies sufficient for all samples was prepared in FACs buffer. 100 μL of antibody per well was then added to a round-bottom 96-well plate. The sample plate was incubated for 20 minutes on ice. Cells were washed by addition of cold sample buffer, centrifuged for two minutes at 2000 rpm, and supernatants discarded. […]
Antibody binding was measured by flow cytometry using a BD LSR Fortessa Flow Cytometer. […] 100,000 events were recorded for each sample. Samples were analyzed by sequentially gating on the following populations: FSC-A vs. SSC-A, FSC-H vs. FSC-A, SSC-A vs. LIVE/DEAD, CD4 vs. CD8, and SSC vs. CD25. Mean fluorescence intensity (MFI) was calculated.
Assay [4] has as its target T3, full-length ECD of cynomolgus monkey TIGIT (His-tagged) (cynomolgus monkey).
T3 construct: also called His-tagged cynomolgus monkey TIGIT; cyno TIGIT extracellular domain
As to the kind of experiment: SPR Biacore T200, Protein A capture, 1:1 model, experiment #2. Here is the method:
as §1
(§2) Antibodies were captured using a 30-sec injection at a flow rate of 10 μl/min to reach about 500 resonance units (RUs). […] The sensor chip was regenerated between cycles with two 30-sec injections of 10 mM glycine, pH 1.5. Sensorgrams were evaluated and fit to a simple Langmuir 1:1 interaction model using the global data analysis option of BIAevaluation 3.0 software. Data quality was verified by visually inspecting deviations and curve fitting, and by evaluating the parameters of Rₘₐₓ, Chi2, and Tc.
A general note: SPR reads the build-up and loss of mass on a sensor chip optically.

Assay [5] concerns the target T4, full-length ECD of human TIGIT (His-tagged) (human).
T4 construct: also called His-tagged human TIGIT; human TIGIT extracellular domain
T4 chain: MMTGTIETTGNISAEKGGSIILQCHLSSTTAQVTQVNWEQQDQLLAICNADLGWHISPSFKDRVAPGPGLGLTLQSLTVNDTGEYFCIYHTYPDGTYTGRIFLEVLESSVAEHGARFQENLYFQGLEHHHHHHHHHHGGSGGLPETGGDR
Described as above. Here is the method:
as §1, §2

As a reminder, the EC50 is the concentration at which the effect is half-maximal. As a reminder, the Kd is the constant that tells how readily two partners part at equilibrium. One may read the EC50 (read off the curve) as the concentration giving half of the maximal effect. For orientation: koff means the first-order rate constant of dissociation. As a reminder, the kon is the second-order rate constant of association.

B1: anti-TIGIT×CD96 multispecific molecule BA123 (bispecific antibody, human IgG1, kappa, lambda)
heavy 1: QVQLVQSGAEVKKPGASVKVSCKASGYTFTSYGISWVRQAPGQGLEWMGWISAYNANTNYAQKLQGRVTMTTDTSTSTAYMELRSLRSDDTAVYYCARSAGVLGGMDVWGRGTLVTVSSASTKGPSVFPLAPSSKSTSGGTAALGCLVKDYFPEPVTVSWNSGALTSGVHTFPAVLQSSGLYSLSSVVTVPSSSLGTQTYICNVNHKPSNTKVDKRVEPKSCDKTHTCPPCPAPELLGGPDVFLFPPKPKDTLMISRTPEVTCVVVDVSHEDPEVKFNWYVDGVEVHNAKTKPREEQYNSTYRVVSVLTVLHQDWLNGKEYKCKVSNKALPAPIEKTISKAKGQPREPQVYTLPPSREEMTKNQVSLSCAVKGFYPSDIAVEWESNGQPENNYKTTPPVLDSDGSFFLVSKLTVDKSRWQQGNVFSCSVMHEALHNHYTQKSLSLSPG
light 1: not shown
heavy 2: EVQLVQSGAEVKKPGSSVKVSCKASGYTFASYGISWVRQAPGQGLEWMGGITPFFNRVDVAEKFQGRVTITADKSTSTAYIELSSLRSEDTAVYYCARDLRRGGVGDAFDIWGRGTLVTVSSASTKGPSVFPLAPSSKSTSGGTAALGCLVKDYFPEPVTVSWNSGALTSGVHTFPAVLQSSGLYSLSSVVTVPSSSLGTQTYICNVNHKPSNTKVDKRVEPKSCDKTHTCPPCPAPELLGGPDVFLFPPKPKDTLMISRTPEVTCVVVDVSHEDPEVKFNWYVDGVEVHNAKTKPREEQYNSTYRVVSVLTVLHQDWLNGKEYKCKVSNKALPLPEEKTISKAKGQPREPQVYTLPPSREEMTKNQVSLWCLVKGFYPSDIAVEWESNGQPENNYKTTPPVLDSDGSFFLYSKLTVDKSRWQQGNVFSCSVMHEALHNHYTQKSLSLSPG
light 2: QSALTQPRSVSGSPGQSVTISCTGTSPDVGSHAYRSWYQQHPGKAPKLMIYEVSYRPSGVSNRFSGSKSGNTASLTISGLQAEDEADYYCSSYPPSSATVFGAGTKLTVLGQPKAAPSVTLFPPSSEELQANKATLVCLISDFYPGAVTVAWKADSSPVKAGVETTTPSKQSNNKYAASSYLSLTPEQWKSHRSYSCQVTHEGSTVEKTVAPTEC
notes: copies: 1 + 1 + 1 + 1
In assay [1], B1 showed an EC50 of 0.196 mg/L. In assay [2], this molecule came in with a Kd of 45.3 nM.

B2: anti-TIGIT×CD96 multispecific molecule BA127 (bispecific antibody, human IgG1, kappa, lambda)
heavy 1: QVQLVQSGAEVKKPGASVKVSCKASGYTFTTYALHWVRQAPGQRLEWMGWINTGSGDTKYSQKFQGRVTITRDTSASTAYMELSSLRSEDTAVYYCARSLGVYYGMDVWGQGTLVTVSSASTKGPSVFPLAPSSKSTSGGTAALGCLVKDYFPEPVTVSWNSGALTSGVHTFPAVLQSSGLYSLSSVVTVPSSSLGTQTYICNVNHKPSNTKVDKRVEPKSCDKTHTCPPCPAPELLGGPDVFLFPPKPKDTLMISRTPEVTCVVVDVSHEDPEVKFNWYVDGVEVHNAKTKPREEQYNSTYRVVSVLTVLHQDWLNGKEYKCKVSNKALPAPIEKTISKAKGQPREPQVYTLPPSREEMTKNQVSLSCAVKGFYPSDIAVEWESNGQPENNYKTTPPVLDSDGSFFLVSKLTVDKSRWQQGNVFSCSVMHEALHNHYTQKSLSLSPG
light 1: not shown
heavy 2: EVQLVQSGAEVKKPGSSVKVSCKASGYTFASYGISWVRQAPGQGLEWMGGITPFFNRVDVAEKFQGRVTITADKSTSTAYIELSSLRSEDTAVYYCARDLRRGGVGDAFDIWGRGTLVTVSSASTKGPSVFPLAPSSKSTSGGTAALGCLVKDYFPEPVTVSWNSGALTSGVHTFPAVLQSSGLYSLSSVVTVPSSSLGTQTYICNVNHKPSNTKVDKRVEPKSCDKTHTCPPCPAPELLGGPDVFLFPPKPKDTLMISRTPEVTCVVVDVSHEDPEVKFNWYVDGVEVHNAKTKPREEQYNSTYRVVSVLTVLHQDWLNGKEYKCKVSNKALPLPEEKTISKAKGQPREPQVYTLPPSREEMTKNQVSLWCLVKGFYPSDIAVEWESNGQPENNYKTTPPVLDSDGSFFLYSKLTVDKSRWQQGNVFSCSVMHEALHNHYTQKSLSLSPG
light 2: QSALTQPRSVSGSPGQSVTISCTGTSPDVGSHAYRSWYQQHPGKAPKLMIYEVSYRPSGVSNRFSGSKSGNTASLTISGLQAEDEADYYCSSYPPSSATVFGAGTKLTVLGQPKAAPSVTLFPPSSEELQANKATLVCLISDFYPGAVTVAWKADSSPVKAGVETTTPSKQSNNKYAASSYLSLTPEQWKSHRSYSCQVTHEGSTVEKTVAPTEC
notes: Anti-CD96 arm = BA139, anti-TIGIT arm = BA150; copies: 1 + 1 + 1 + 1
In the case of B2, in assay [3], the “EC50 (read off the curve)” value is around 0.06 mg/L. The molecule also yielded an EC50 in assay [1] of 0.0951 mg/L.

B3: anti-TIGIT monospecific antibody BA148 (antibody, human IgG1, lambda)
heavy: EVQLVQSGAEVKKPGSSVKVSCKASGYTFASYGISWVRQAPGQGLEWMGGITPFFNRVDVAEKFQGRVTITADKSTSTAYIELSSLRSEDTAVYYCARDLRRGGVGDAFDIWGRGTLVTVSSASTKGPSVFPLAPSSKSTSGGTAALGCLVKDYFPEPVTVSWNSGALTSGVHTFPAVLQSSGLYSLSSVVTVPSSSLGTQTYICNVNHKPSNTKVDKRVEPKSCDKTHTCPPCPAPELLGGPDVFLFPPKPKDTLMISRTPEVTCVVVDVSHEDPEVKFNWYVDGVEVHNAKTKPREEQYNSTYRVVSVLTVLHQDWLNGKEYKCKVSNKALPLPEEKTISKAKGQPREPQVYTLPPSREEMTKNQVSLTCLVKGFYPSDIAVEWESNGQPENNYKTTPPVLDSDGSFFLYSKLTVDKSRWQQGNVFSCSVMHEALHNHYTQKSLSLSPGK
light: QSALTQPRSVSGSPGQSVTISCTGTSPDVGSHAYRSWYQQHPGKAPKLMIYEVSYRPSGVSNRFSGSKSGNTASLTISGLQAEDEADYYCSSYPPSSATVFGAGTKLTVLGQPKAAPSVTLFPPSSEELQANKATLVCLISDFYPGAVTVAWKADSSPVKAGVETTTPSKQSNNKYAASSYLSLTPEQWKSHRSYSCQVTHEGSTVEKTVAPTEC
notes: IgG1; also called anti-TIGIT IgG1 antibody BA148
In assay [4], B3 had a Kd of 4.06 nM, a koff of 0.00126 s⁻¹ and a kon of 310000 M⁻¹ s⁻¹. Besides, in assay [5], the affinity, expressed as Kd, was 0.548 nM; the off-rate constant (koff) came to 0.000422 s⁻¹; the kon was 770000 M⁻¹ s⁻¹.
